According to US20240392251A1, “CULTURE MEDIUM AND CULTURE METHOD FOR LUNG CANCER EPITHELIAL CELLS, AND APPLICATION THEREOF” (PRECEDO PHARMACEUTICALS CO., LTD, priority 2021, published 2024):

Legend:
[1] = system: lung cancer epithelial cells (Sample No. B26); experiment: Effects of different concentrations of the additive factors on proliferation of primary lung cancer cells; type: cell-based, human; settings: added to No. 8 medium lacking the factor; cell number ratio to Blank Control; FIGS. 3A-3H
Experimental: (§1) Extracellular matrix gel (Matrigel®) was diluted with serum-free DMEM/F12 medium at a ratio of 1:100 to prepare an extracellular matrix diluent. The extracellular matrix diluent was added to a 48-well culture plate with 200 μl/well to completely cover the bottom of the wells of the culture plate. The culture plate was let stand for 1 hour in a 37° C. incubator. After 1 hour, the extracellular matrix diluent was removed to provide a Matrigel-coated plate.
No. 8 culture medium for primary lung cancer epithelial cells was prepared.
Lung cancer epithelial cells derived from cancer tissues were isolated from the cancer tissue of a lung cancer patient (Sample No. B26) using the same method as in Example 1. Next, lung cancer epithelial cells derived from cancer tissues were counted with a flow imaging counter (JIMBIO FIL, Jiangsu Jimbio Technology Co., Ltd.) to get the total number of cells. Then, the cells were inoculated at a density of 4×10^4 cells/cm^2 in a 48-well plate which was coated with Matrigel®. […] The centrifuged cell pellet was resuspended in the basic medium BM and the cells were counted with a flow imaging counter (JIMBIO FIL, Jiangsu Jimbio Technology Co., Ltd.) to get the total number of cells. […]

[2] = system: lung cancer cells (No. B18); experiment: Effects of different factors added to basic medium BM on proliferation of primary lung cancer cells; type: cell-based, human; settings: factor added to BM at the concentrations of Table 3; 12 days of culture; FIGS. 1A-1D
Experimental: as §1, with “(Matrigel®) (manufactured by Corning)” for “(Matrigel®)”, “500” for “200”
Preparation of basic medium (abbreviated as BM): BM was prepared by adding 0.2 vol. % of Primocin (purchased from Invivogen, with a concentration of 50 mg/ml) to the commercial DMEM/F-12 medium to provide a final concentration of 100 μg/ml.
Next, different kinds and concentrations of additive factors (Table 3) were added to the basic medium (BM), so as to prepare culture mediums for lung cancer epithelial cells containing different additive components.
The culture mediums with different components were added at a volume of 500 μl/well to 48-well plates which were coated with extracellular matrix gel (Matrigel). Lung cancer cells (No. B18) isolated from lung cancer tissues according to the same method as described in Example 1 were inoculated at a cell density of 2×10^4 cells/cm^2 in the above-mentioned 48-well culture plates which were coated with Matrigel. […]

B1: epidermal growth factor: growth factor from Sino Biological Inc. (protein, UniProt P01133 23-1207, looked up)
Pro-epidermal growth factor: PQHWSCPEGTLAGNGNSTCVGPAPFLIFSHGNSIFRIDTEGTNYEQLVVDAGVSVIMDFHYNEKRIYWVDLERQLLQRVFLNGSRQERVCNIEKNVSGMAINWINEEVIWSNQQEGIITVTDMKGNNSHILLSALKYPANVAVDPVERFIFWSSEVAGSLYRADLDGVGVKALLETSEKITAVSLDVLDKRLFWIQYNREGSNSLICSCDYDGGSVHISKHPTQHNLFAMSLFGDRIFYSTWKMKTIWIANKHTGKDMVRINLHSSFVPLGELKVVHPLAQPKAEDDTWEPEQKLCKLRKGNCSSTVCGQDLQSHLCMCAEGYALSRDRKYCEDVNECAFWNHGCTLGCKNTPGSYYCTCPVGFVLLPDGKRCHQLVSCPRNVSECSHDCVLTSEGPLCFCPEGSVLERDGKTCSGCSSPDNGGCSQLCVPLSPVSWECDCFPGYDLQLDEKSCAASGPQPFLLFANSQDIRHMHFDGTDYGTLLSQQMGMVYALDHDPVENKIYFAHTALKWIERANMDGSQRERLIEEGVDVPEGLAVDWIGRRFYWTDRGKSLIGRSDLNGKRSKIITKENISQPRGIAVHPMAKRLFWTDTGINPRIESSSLQGLGRLVIASSDLIWPSGITIDFLTDKLYWCDAKQSVIEMANLDGSKRRRLTQNDVGHPFAVAVFEDYVWFSDWAMPSVMRVNKRTGKDRVRLQGSMLKPSSLVVVHPLAKPGADPCLYQNGGCEHICKKRLGTAWCSCREGFMKASDGKTCLALDGHQLLAGGEVDLKNQVTPLDILSKTRVSEDNITESQHMLVAEIMVSDQDDCAPVGCSMYARCISEGEDATCQCLKGFAGDGKLCSDIDECEMGVPVCPPASSKCINTEGGYVCRCSEGYQGDGIHCLDIDECQLGEHSCGENASCTNTEGGYTCMCAGRLSEPGLICPDSTPPPHLREDDHHYSVRNSDSECPLSHDGYCLHDGVCMYIEALDKYACNCVVGYIGERCQYRDLKWWELRHAGHGQQQKVIVVAVCVVVLVMLLLLSLWGAHYYRTQKLLSKNPKNPYEESSRDVRSRRPADTEDGMSSCPQPWFVVIKEHQDLKNGGQPVAGEDGQAADGSMQPTSWRQEPQLCGMGTEQGCWIPVSSDKGSCPQVMERSFHMPSYGTQTLEGGVEKPHSLLSANPLWQQRALDPPHQMELTQ
modifications: Pro-epidermal growth factor
B1 was tested, and the “amount in the culture medium, most preferably” value [1] was 20 ng/mL and the “effect on cell proliferation (ratio of number of cells to that in basic medium BM)” value [2] was “certain promoting effects on cell proliferation in specific concentration ranges”.
